Experimental data from article PMC11617104 (Molecular Biology of the Cell, 2024).

How the values were obtained:
[1] = biological target: G3BP1 NTF2L domain (residues 1-139), V11A (UniProt Q13283 1-139, V11A); experiment: differential scanning fluorimetry
[2] = biological target: G3BP1 NTF2L domain (residues 1-139), wild type (UniProt Q13283 1-139); experiment: differential scanning fluorimetry
Sequence of G3BP1 NTF2L domain (residues 1-139), wild type (Q13283 1-139): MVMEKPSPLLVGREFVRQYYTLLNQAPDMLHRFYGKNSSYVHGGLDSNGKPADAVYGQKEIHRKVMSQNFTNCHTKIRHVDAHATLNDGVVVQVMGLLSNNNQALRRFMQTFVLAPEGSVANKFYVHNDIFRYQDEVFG

Sequence of G3BP1 NTF2L domain (residues 1-139), V11A (Q13283 1-139 V11A): as the sequence (Q13283 1-139) above, with V11A counted along it

RQRVQDLMAQMQGPYNFIQDSMLDFENQTLD [Caprin-1 peptide (residues 356-386)]
thermal shift (ΔTm) [1]: 1 to 1.5 °C
thermal shift (ΔTm) at 50 µM and 100 µM Caprin-1 peptide [2]: ~3 °C
